The target of assay [1] is T1, human MAGEB17 (human, UniProt A8MXT2 1-336).
T1 construct: whole, on cells; FFPE cell pellets; also called MAGE-17
T1 sequence (looked up): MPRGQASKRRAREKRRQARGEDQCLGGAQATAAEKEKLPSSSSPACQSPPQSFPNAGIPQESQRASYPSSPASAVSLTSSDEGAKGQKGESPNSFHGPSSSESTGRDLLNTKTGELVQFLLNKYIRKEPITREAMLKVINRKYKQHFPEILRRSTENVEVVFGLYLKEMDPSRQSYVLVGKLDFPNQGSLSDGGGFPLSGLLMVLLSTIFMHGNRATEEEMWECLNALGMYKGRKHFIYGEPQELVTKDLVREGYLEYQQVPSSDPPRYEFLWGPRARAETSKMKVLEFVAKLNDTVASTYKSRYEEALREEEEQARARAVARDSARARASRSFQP
Nature of the assay: IHC, FFPE CHO cells transfected with human MAGEB17. The procedure: (§1) FFPE samples were sectioned at 4 μm and mounted on positive charged glass slides. After mounting, paraffin sections were air-dried at room temperature. FFPE TMA samples were received as freshly sectioned and mounted on glass slides. The fully automated IHC assay was performed on a Discovery Ultra Stainer (Ventana Medical Systems, Tucson, AZ) using Ventana Anti-Rabbit HQ (cat #760-4815), Ventana Anti-HQ HRP (cat #760-4820), and Ventana Antibody Diluent with Casein (cat #760-219) (Ventana Medical Systems, Tucson, AZ). The slides were baked on the Discovery Ultra Stainer at 60° C. for 8 minutes, de-paraffinized with Ventana Discovery wash (cat #950-510) for 3 cycles (8 minutes each) at 69° C., and underwent cell conditioning (target retrieval) at 95° C. for 16 minutes (for cell arrays) or 32 minutes (tissues or TMAs) in CC1 buffer (cat #950-500). Following this, slides were incubated with Background Sniper (cat #BS966M, Biocare Medical, Pacheco, CA) in a Ventana Option Prep kit (cat #771-751) for 28 minutes, incubated with CM inhibitor (a part of the Ventana DAB kit cat #760-159) for 12 minutes, and incubated for 1 h at RT with MAGE-B2 antibody diluted with Ventana diluent with Casein in a Ventana Prep kit (cat #770-001) (working concentration at 0.1 μg/ml for cell pellet, or 1-5 ug/ml for tissues) or with a matched concentration of isotype control Rabbit IgG1 antibody. Following this, slides were incubated with the Ventana Anti-Rabbit HQ (cat #760-4815) for 28 minutes at RT, Ventana Anti-HQ HRP (cat #760-4820) for 28 minutes at RT, and signals detected with Ventana DAB chromogen kit (cat #760-159) for 5 minutes at RT. Slides were counterstained with Ventana Hematoxylin II (cat #5266726001) for 8 minutes and Ventana Bluing reagent (cat #526676900) for 4 minutes. Slides were coverslipped and digitized using an Aperio AT2 scanner (Leica Biosystems Inc, Buffalo Grove, IL).

Assay [2] concerns the target T2, human MAGEB10 (human, UniProt Q96LZ2 1-347).
T2 construct: whole, on cells; FFPE cell pellets
T2 sequence (looked up): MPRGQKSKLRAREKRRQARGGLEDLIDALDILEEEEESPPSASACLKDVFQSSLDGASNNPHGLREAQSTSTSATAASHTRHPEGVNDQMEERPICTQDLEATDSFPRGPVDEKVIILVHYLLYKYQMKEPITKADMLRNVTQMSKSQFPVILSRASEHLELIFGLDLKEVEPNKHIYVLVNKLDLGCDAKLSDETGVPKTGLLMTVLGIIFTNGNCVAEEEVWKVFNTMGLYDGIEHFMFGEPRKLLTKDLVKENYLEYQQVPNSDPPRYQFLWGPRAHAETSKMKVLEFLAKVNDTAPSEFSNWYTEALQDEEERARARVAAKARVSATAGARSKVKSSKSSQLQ
Nature of the assay: IHC, FFPE CHO cells transfected with human MAGEB10.
From the text: Negative control cells included parental Chinese hamster ovary (CHO) cells, CHO cells stably transfected with mCherry Vector Control (minus Myc/DDK tags), CHO cells stably transfected with mCherry-human DCAF4L2 (plus Myc/DDK tags). The cross-reactivity control cells included CHO cells transfected with mCherry Vector Control (plus Myc/DDK tags) with one of the human MAGE-B or MAGE-A family members (MAGEA1, MAGEA2, MAGEA3, MAGEA4, MAGEA5, MAGEA6, MAGEA8, MAGEA9, MAGEA11, MAGEA12, MAGEB1, MAGEB3, MAGEB4, MAGEB5, MAGEB6, MAGEB10, MAGEB16, MAGEB17, MAGEB18). Positive control cell lines included CHO cells transfected with mCherry Vector (plus Myc/DDK tags) with human MAGE-B2 or CHO cells transfected with mCherry Vector (open reading frame (ORF); minus Myc/DDK tags) with human MAGEB2, and thirteen human cancer cell lines with known endogenous RNA expression level of MAGEB2 (U266B1, T98G, KMM-1, U20S, CFPAC-1, SCaBER, UACC-257, CFPAC-1, VMRC-LCD, NCI-H1703, UM-UC-3, NCI-H1395, NCIH82).
as §1, with “antibody.” for “antibody. Following this, slides were incubated with the Ventana Anti-Rabbit HQ (cat #760-4815) for 28 minutes at RT, Ventana Anti-HQ HRP (cat #760-4820) for 28 minutes at RT, and signals detected with Ventana DAB chromogen kit (cat #760-159) for 5 minutes at RT. Slides were counterstained with Ventana Hematoxylin II (cat #5266726001) for 8 minutes and Ventana Bluing reagent (cat #526676900) for 4 minutes. Slides were coverslipped and digitized using an Aperio AT2 scanner (Leica Biosystems Inc, Buffalo Grove, IL).”

B1: 1I14 (antibody, V domains shown)
VH: QSVEESGGRLVTPGTPLTLTCTISGFSLSSYAMSWVRQAPGKGLEWIGSIGGGGSAVYASWAKGRFTISKTSTTVDLRITSPTTEDTAMYFCGRGFYSIDLWGPGTLVTVSS
VL: DVVMTQTPASVEATVGGTVTIKCQSSQSVYDNNALAWYQQNAGQRPRLLIYGASTLASGVPSRFSASGSGTEFTLTISDLECADAATYYCQCTYYVSSYQNDFGGGTEVVVKG
notes: also called MAGE-B2 (1i14)
For the molecule B1, the binding result in assay [1] and in assay [2] was “no binding (tested: 0.1 µg/ml)” throughout.

B2: 1C3 (antibody, V domains shown)
VH: QSLEESGGGLVQPEGSLTLTCTAFGVTLTNYYICWVRQAPGKGLEWVGCIDNANGRTYYASWAKGRFTISKTSSTTGTLQMTSLTAADTATYFCARSLATPLWGPGTLVTVSS
VL: DIVMTQTPSSVEAAVGGTVTIKCQASQNISSYLAWYQQKPGQPPKLLIYRASTLASGVPSRFKGSGSGTQFTLTISDLECADAATYYCQSYDDSRSSNFFYAFGGGTEVVVKG
notes: also called MAGE-B2 (IC3); anti-MAGEB2 antibody 1C3
With B2, the binding result in assay [1] and in assay [2] was “no binding (tested: 0.1 µg/ml)” in each case.

B3: 4G17 (antibody, IgG1, V domains shown)
VH: QSLEESGGGLVQPEGSLTLTCTASGVTLSNYYICWVRQAPGKGLEWIGCIDNVNGRTYYASWAKGRFTISKTSSTTGTLQMTSLTAADTATYFCARSLATPLWGPGTLVTVSS
VL: DIVMTQTPASVEAAVGGTVTIKCQASQNIDSYLAWYQQKPGQPPKLLIYRASTLASGVPSRFKGSGSGTEFTLTISDLECADAATYYCQSYDDSRSSSFFYGFGGGTEVVVK
notes: Rabbit monoclonal IgG1; Tested as supernatant and as small batch purified antibody; also called MAGE-B2 (4G17); anti-MAGEB2 antibody 4G17
For the molecule B3, the binding result in assay [1] and in assay [2] was “no binding (tested: 0.1 µg/ml)” throughout.

B4: 1J15 (antibody, IgG1, V domains shown)
VH: QSLEESGGGLVQPEGSLTLTCTAFGFTLNNYYICWVRQAPGKGLEWIACIDNANGRTYYASWAKGRFTISKTSSTTVTLQMTSLTAADTATYFCARSLSTPLWGPGTLVTVSS
VL: DIVMTQTPASVEAAVGGTVTIKCQASQSISSYLSWYQQKPGQPPKLLIYRASTLASGVPSRFRGSGSGTQFTLTISDLECADAATYYCQSYDDSSDNNFFYGFGGGTEVVVR
notes: Rabbit monoclonal IgG1; Tested as supernatant and as small batch purified antibody; also called MAGE-B2 (IJ15); anti-MAGEB2 antibody 1J15
On to B4, for which the binding result in assay [1] and in assay [2] was “no binding (tested: 0.1 µg/ml)” each time.

For the origin of these results see patent US20250282887A1 (Amgen, published 2025).
